Reference: the supplement of paper PMC10126150
± gives the standard deviation of the averaged measurements.

Test system: ATP
Test: switch fluorescence ratio, 500 uM ATP over buffer (Cy3 cluster intensity, sum of 5 cycles each) (fold (ratio)); higher = stronger signal-on switching upon ATP binding; sequences stand for … in TCGTCGGCAGCGTCAGATGTGTATAAGAGACAGTTTTTTTTTTTTTTTTTTTTTTTTT…TC
Settings: aptamer strand: ATP DNA aptamer (quencher-CACCTGGGGGAGTATTGCGGAGGAAGG + anchor), 100 nM annealed; ATP concentration: 500 uM
Outline: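 Imaging in selection buffer was followed by imaging after 15 min with 500 uM ATP at 22 °C, for Cy3-labelled switching-strand clusters annealed to 100 nM quencher-labelled ATP aptamer on a modified Illumina MiSeq flow-cell. Five of these buffer/ATP cycles ran, separated by NaOH stripping and re-annealing. The fluorescence ratio per cluster is summed target-cycle over summed buffer-cycle Cy3 intensity, averaged per switch-domain sequence; clusters outside 100-1000 RFU were removed.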
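Note: ATP exposure 15 min at 22 °C before imaging.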

| Sequence | switch fluorescence ratio |
| --- | --- |
| CATGGGTGTG | 0.993 ± 0.042 |
| CATGGTAGAG | 0.975 ± 0.034 |
| CATGGTGCCC | 1.03 ± 0.026 |
| CATGGTGGCG | 1.01 ± 0.022 |
| CATGGTGGGA | 0.969 ± 0.017 |
| CATGTAACGC | 1.04 ± 0.066 |
| CATGTAATTT | 0.966 ± 0.034 |
| CATGTAGCCG | 1.01 ± 0.061 |
| CATGTATGCT | 1 ± 0.014 |
| CATGTATTTT | 0.991 ± 0.041 |
| CATGTCAGGA | 1.02 ± 0.018 |
| CATGTCTGTA | 1 |
| CATGTGATTA | 1.007 ± 0.01 |
| CATGTGGCGG | 0.995 ± 0.0016 |
| CATGTGGGTG | 1 ± 0.047 |
| CATGTGTGAG | 0.949 ± 0.026 |
| CATGTGTGGT | 1.004 ± 0.0078 |
| CATGTGTTGC | 0.987 ± 0.012 |
| CATGTTAGTC | 1.01 ± 0.012 |
| CATGTTATCC | 1.01 ± 0.034 |
| CATGTTGGTA | 0.9946 ± 0.0076 |
| CATGTTTCTG | 0.9927 ± 0.0078 |
| CATGTTTTGG | 0.9836 ± 0.0043 |
| CATGTTTTTG | 1 ± 0.025 |
| CATTAAAGAT | 1.01 ± 0.077 |

| Sequence | switch fluorescence ratio |
| --- | --- |
| CATTAAAGCC | 0.968 ± 0.025 |
| CATTAGAGGT | 0.995 ± 0.014 |
| CATTAGTAGC | 1.02 ± 0.05 |
| CATTATATCG | 1 ± 0.023 |
| CATTATGCTT | 0.9864 ± 0.0014 |
| CATTATGGAG | 1 ± 0.047 |
| CATTCAGTCG | 1 ± 0.026 |
| CATTCAGTTC | 1 ± 0.058 |
| CATTCATGCT | 0.971 ± 0.033 |
| CATTCGGATG | 1.01 ± 0.055 |
| CATTGAGTAG | 1.01 ± 0.024 |
| CATTGAGTCG | 0.98 ± 0.052 |
| CATTGCAA | 1 ± 0.085 |
| CATTGCAAAC | 5.13 ± 0.53 |
| CATTGCTCTG | 1.02 ± 0.026 |
| CATTGGGGGG | 0.99 ± 0.038 |
| CATTGGTAGG | 0.987 ± 0.019 |
| CATTGGTTTG | 1.01 ± 0.048 |
| CATTGTCTTC | 1.05 ± 0.055 |
| CATTGTGGGA | 0.997 ± 0.023 |
| CATTGTGGGC | 0.9621 ± 0.0034 |
| CATTTAAAGC | 1 ± 0.018 |
| CATTTAGCAC | 1.131 ± 0.0021 |
| CATTTAGCTG | 0.9875 ± 0.0055 |
| CATTTAGGGC | 1.02 ± 0.054 |

| Sequence | switch fluorescence ratio |
| --- | --- |
| CATTTAGGGG | 0.995 ± 0.036 |
| CATTTAGGTA | 1.001 ± 0.0078 |
| CATTTATAGT | 0.9799 ± 0.0083 |
| CATTTATGTG | 0.978 ± 0.021 |
| CATTTCAACC | 1.019 ± 0.0021 |
| CATTTGAGGT | 1 ± 0.027 |
| CATTTGATCG | 1.03 ± 0.013 |
| CATTTGCGCA | 1.022 ± 0.0084 |
| CATTTGGATT | 1.04 ± 0.012 |
| CATTTGGGGT | 0.989 ± 0.017 |
| CATTTTATAA | 0.999 ± 0.014 |
| CATTTTCCGC | 1.81 ± 0.57 |
| CATTTTCTC | 1.038 ± 0.0086 |
| CATTTTGTCT | 1.018 ± 0.0047 |
| CCAAAAAAGG | 0.9625 ± 0.005 |
| CCAAAAGGAT | 1.01 ± 0.012 |
| CCAAAAGTAT | 1.03 ± 0.081 |
| CCAAAATTCC | 1.12 ± 0.034 |
| CCAAACAGGA | 1.006 ± 0.0063 |
| CCAAACGATT | 1.02 ± 0.027 |
| CCAAAGGGTT | 1.036 ± 0.0034 |
| CCAAATAGGA | 1.01 ± 0.013 |
| CCAAATGAGT | 0.989 ± 0.012 |
| CCAACTGGGA | 1.05 ± 0.012 |
| CCAAGAGTCG | 1.08 ± 0.046 |

| Sequence | switch fluorescence ratio |
| --- | --- |
| CCAAGCGCTG | 1.06 ± 0.03 |
| CCAAGGAAAA | 1.04 ± 0.17 |
| CCAAGGCAGG | 1.35 ± 0.069 |
| CCAAGGCGGG | 1.04 ± 0.017 |
| CCAAGGGCTG | 1.15 ± 0.19 |
| CCAAGGTCCT | 1.01 ± 0.014 |
| CCAAGTGCTG | 0.994 ± 0.018 |
| CCAAGTGGGA | 0.985 ± 0.01 |
| CCAAGTGGGC | 1.03 ± 0.053 |
| CCAAGTGTAT | 1.02 ± 0.055 |
| CCAAGTTGTG | 1.03 ± 0.074 |
| CCAAGTTTTT | 0.98 ± 0.031 |
| CCAATCGGGG | 1.03 ± 0.087 |
| CCAATGAGTC | 0.971 ± 0.013 |
| CCAATGGTGG | 1.01 ± 0.043 |
| CCAATGTGCG | 0.9925 ± 0.0092 |
| CCAATTCAAG | 0.9977 ± 0.0073 |
| CCACAAAATT | 1.1 ± 0.18 |
| CCACAGAAAA | 1.033 ± 0.006 |
| CCACAGGGCA | 1.34 ± 0.059 |
| CCACCCACAT | 1.48 ± 0.065 |
| CCACTTGAAA | 1 ± 0.018 |
| CCACTTGGTC | 1.06 ± 0.064 |
| CCAGACAGGG | 0.956 ± 0.045 |
| CCAGACATGA | 1.02 ± 0.012 |

| Sequence | switch fluorescence ratio |
| --- | --- |
| CCAGAGGAAC | 0.948 ± 0.019 |
| CCAGAGGTGT | 1.6 ± 0.064 |
| CCAGCATAGA | 1.14 ± 0.044 |
| CCAGCTGGAG | 0.997 ± 0.025 |
| CCAGCTGGAT | 1.015 ± 0.0088 |
| CCAGGCAAGC | 2.46 ± 1.3 |
| CCAGGCATGT | 1.05 ± 0.012 |
| CCAGGCGCGG | 1.05 ± 0.055 |
| CCAGGCTTAA | 1.06 ± 0.036 |
| CCAGGGAGCC | 1.1 ± 0.17 |
| CCAGGGCGGC | 0.854 ± 0.019 |
| CCAGGGCTAG | 1.02 ± 0.062 |
| CCAGGGGGGC | 1.16 ± 0.061 |
| CCAGGGGTGG | 1.02 ± 0.064 |
| CCAGGGTGCT | 2 ± 0.39 |
| CCAGGTAACT | 1.05 ± 0.018 |
| CCAGGTAAGT | 1.11 ± 0.11 |
| CCAGGTAGAG | 1.32 ± 0.13 |
| CCAGGTGTTA | 2.31 ± 1.8 |
| CCAGGTTAAT | 1.036 ± 0.0033 |
| CCAGGTTGTT | 1.551 ± 0.0043 |
| CCAGGTTTGC | 1.08 ± 0.067 |
| CCAGGTTTTT | 1.04 ± 0.017 |
| CCAGTAATTG | 1.04 ± 0.022 |
| CCAGTAGACT | 1.06 ± 0.035 |

| Sequence | switch fluorescence ratio |
| --- | --- |
| CCAGTAGGTC | 1.03 ± 0.022 |
| CCAGTCATGA | 1.014 ± 0.0027 |
| CCAGTGAGTC | 1.07 ± 0.041 |
| CCAGTTGATG | 0.991 ± 0.057 |
| CCAGTTTACT | 1.01 ± 0.042 |
| CCAGTTTGGT | 0.9871 ± 0.0073 |
| CCAGTTTGTG | 1.018 ± 0.0037 |
| CCAGTTTTTC | 1.01 ± 0.019 |
| CCAGTTTTTT | 1.002 ± 0.0099 |
| CCATACGTCA | 1.25 ± 0.054 |
| CCATACTTAT | 1.042 ± 0.0059 |
| CCATAGCAGG | 3.97 ± 0.9 |
| CCATAGCTCA | 2.016 ± 0.016 |
| CCATAGTGAC | 2.18 ± 0.18 |
| CCATATAGGC | 1.03 ± 0.065 |
| CCATCATAGG | 1.0149 ± 0.00068 |
| CCATCATTTT | 0.99 ± 0.041 |
| CCATCGGTGG | 1 ± 0.047 |
| CCATCGTATG | 0.971 ± 0.015 |
| CCATGAAAAT | 1.029 ± 0.003 |
| CCATGGAGTA | 1 ± 0.019 |
| CCATGGCGGG | 0.97 ± 0.028 |
| CCATGGCTGG | 1 ± 0.016 |
| CCATGGGGGA | 1.01 ± 0.0019 |
| CCATGGTACG | 1.051 ± 0.01 |

| Sequence | switch fluorescence ratio |
| --- | --- |
| CCATGTGTG | 1.02 ± 0.024 |
| CCATGTTAAG | 0.985 ± 0.02 |
| CCATGTTGCG | 0.982 ± 0.012 |
| CCATTCCCAT | 1.26 ± 0.28 |
| CCATTGTAAG | 1.02 ± 0.05 |
| CCATTGTAGT | 0.99 ± 0.013 |
| CCATTGTGAC | 1.06 ± 0.018 |
| CCATTGTGCA | 1.01 ± 0.013 |
| CCCAATTTGA | 1.06 ± 0.014 |
| CCCAGAGTTC | 1.06 ± 0.023 |
| CCCAGATTTT | 1.02 ± 0.03 |
| CCCAGTCAGA | 1.033 ± 0.0078 |
| CCCAGTTTGG | 1.01 ± 0.015 |
| CCCATCCGGT | 1.12 ± 0.023 |
| CCCATGCGTT | 1.03 ± 0.063 |
| CCCATGGGGG | 1.01 ± 0.028 |
| CCCATTTAGG | 1.04 ± 0.084 |
| CCCATTTTTT | 1 ± 0.049 |
| CCCCAAAAGT | 1.12 ± 0.14 |
| CCCCAATTT | 0.999 ± 0.025 |
| CCCCACGGCC | 1.16 ± 0.028 |
| CCCCAGGGGG | 3.38 ± 2.3 |
| CCCCCGGTTT | 1.12 ± 0.044 |
| CCCCGGTTA | 1.46 ± 0.12 |
| CCCCTCGAGG | 0.966 ± 0.049 |

| Sequence | switch fluorescence ratio |
| --- | --- |
| CCCGATCATA | 1.02 ± 0.017 |
| CCCGCAGTGT | 4.3 ± 1.4 |
| CCCGGGGCTG | 1.024 ± 0.0073 |
| CCCGGTATAT | 1.22 ± 0.12 |
| CCCGGTTTTA | 1.06 ± 0.12 |
| CCCGTAGGCT | 0.973 ± 0.014 |
| CCCTGGGTCT | 1.028 ± 0.0089 |
| CCCTTGCGGT | 1.03 ± 0.047 |
| CCCTTTTTTT | 1.07 ± 0.037 |
| CCGAAGGGGA | 1.65 ± 0.88 |
| CCGAATCGGA | 1.02 ± 0.054 |
| CCGAATTCT | 1.13 ± 0.029 |
| CCGACCTGTA | 1.94 ± 0.22 |
| CCGAGATCGT | 1.02 ± 0.033 |
| CCGAGGAGAG | 1.1 ± 0.037 |
| CCGATAGGCA | 1.124 ± 0.0038 |
| CCGATAGGGG | 1.05 ± 0.093 |
| CCGCAGAGCA | 1.79 ± 0.043 |
| CCGCATTGGT | 4.77 ± 0.66 |
| CCGCCAGGGG | 3.42 ± 1.8 |
| CCGCCATAAG | 3.42 ± 0.68 |
| CCGCCTTAAT | 2.21 ± 0.084 |
| CCGCGACAGG | 3.04 ± 0.22 |
| CCGCGGCGAA | 1.47 ± 0.22 |
| CCGCGGGGTT | 1.2 ± 0.084 |
